Test results published in patent US7025971.

T1: PapD (wild type) (E. coli), P15319
T1 chain: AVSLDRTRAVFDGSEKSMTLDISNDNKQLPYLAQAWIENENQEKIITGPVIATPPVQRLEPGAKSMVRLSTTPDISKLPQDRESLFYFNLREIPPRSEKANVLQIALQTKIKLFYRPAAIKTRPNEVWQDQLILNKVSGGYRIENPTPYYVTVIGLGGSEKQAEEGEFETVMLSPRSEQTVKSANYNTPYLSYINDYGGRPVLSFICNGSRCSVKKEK


Target: T1, PapD (wild type) (E. coli), P15319

Binder	% Inhibition [%]
YALAPNAVIPTSLALL (modifications not checked) [MS]	1
LSFP (modifications not checked) [G1′-4′]	0
